The conditions of the data set: Bos taurus, pH 2, 25 °C, Glycine-HCl 0.05 M, KCl 0.1 M, reversible: Yes, whole UniProt chain shown.
Setting [1] is: GdnHCl, Fluorescence, transition: 3.

Several values for one entry are separate records, joined by “and”; a condition that tells them apart may be missing. Equal entries are not always repeated.

B1: Beta-lactoglobulin wild type, P02754 (protein)
chain: MKCLLLALALTCGAQALIVTQTMKGLDIQKVAGTWYSLAMAASDISLLDAQSAPLRVYVEELKPTPEGDLEILLQKWENGECAQKKIIAEKTKIPAVFKIDALNENKVLVLDTDYKKYLLFCMENSAEPEQSLACQCLVRTPEVDDEALEKFDKALKALPMHIRLSFNPTQLEEQCHI
For the protein B1, the denaturant m value by setting is: under setting [1], 4.97 kcal/mol/M and 4.1 kcal/mol/M; (Urea, Absorbance) 1.62 kcal/mol/M; (Urea, CD) 1.06 kcal/mol/M and 1.08 kcal/mol/M and 1.1 kcal/mol/M; (Urea, Fluorescence) 1.56 kcal/mol/M. The “denaturant midpoint (higher = more stable)” value (“denaturant midpoint” below) under setting [1] is 1.44 M and 3.14 M; the “denaturant midpoint” value (Urea, Absorbance) stood at 5.3 M; the “denaturant midpoint” value (Urea, CD) was 6 M and 6.34 M and 6.55 M; the “denaturant midpoint” value (Urea, Fluorescence) came to 5.42 M. Besides, the unfolding free energy under setting [1] is 7.15 kcal/mol and 4.88 kcal/mol; the unfolding free energy (Urea, Absorbance) was found to be 8.58 kcal/mol; the unfolding free energy (Urea, CD) was 6.41 kcal/mol and 6.84 kcal/mol and 7.17 kcal/mol; the unfolding free energy (Urea, Fluorescence) is 8.41 kcal/mol.

For the origin of these results see FireProtDB (doi:10.1016/j.bpc.2007.01.006).
